In article PMC10397247:
Values belong to the binder of their own block, whether it stands above or below them.

Columns and labels:
[1] = biological target: T1, 4H3613-bH; test: two-hybrid library CCNG1;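 further: natural log of median RNA to DNA barcode read ratio; higher means stronger binding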
T1 chain: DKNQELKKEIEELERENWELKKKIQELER

[2] = biological target: T2, 4H348-bH; test: two-hybrid library CCNG1;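 further: natural log of median RNA to DNA barcode read ratio; higher means stronger binding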
T2 chain: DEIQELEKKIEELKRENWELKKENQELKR

[3] = biological target: T3, 4H741-bH; test: two-hybrid library CCNG1;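 further: natural log of median RNA to DNA barcode read ratio; higher means stronger binding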
T3 chain: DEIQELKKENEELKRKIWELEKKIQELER

[4] = biological target: T4, 4H591-bH; test: two-hybrid library CCNG1;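 further: natural log of median RNA to DNA barcode read ratio; higher means stronger binding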
T4 chain: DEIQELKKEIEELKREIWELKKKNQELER

[5] = biological target: T5, 4H3497-bH; test: two-hybrid library CCNG1
T5 chain: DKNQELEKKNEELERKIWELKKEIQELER

[6] = biological target: T6, 4H626-bH; test: two-hybrid library CCNG1
T6 chain: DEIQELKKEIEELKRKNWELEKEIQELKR

[7] = biological target: T7, 4H3926-bH; test: two-hybrid library CCNG1
T7 chain: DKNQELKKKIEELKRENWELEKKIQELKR

[8] = biological target: T8, 4H3277-bH; test: two-hybrid library CCNG1
T8 chain: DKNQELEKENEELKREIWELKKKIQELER

[9] = biological target: T9, 4H906-bH; test: two-hybrid library CCNG1
T9 chain: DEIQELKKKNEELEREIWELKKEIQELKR

[10] = biological target: T10, 4H40-bH; test: two-hybrid library CCNG1
T10 chain: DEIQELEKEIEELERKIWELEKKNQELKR

[11] = biological target: T11, 4H3298-bH; test: two-hybrid library CCNG1
T11 chain: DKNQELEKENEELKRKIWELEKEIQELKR

[12] = biological target: T12, 4H477-bH; test: two-hybrid library CCNG1
T12 chain: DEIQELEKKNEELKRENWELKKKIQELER

[13] = biological target: T13, 4H3462-bH; test: two-hybrid library CCNG1
T13 chain: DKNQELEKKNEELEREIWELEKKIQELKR

[14] = biological target: T14, 4H3628-bH; test: two-hybrid library CCNG1
T14 chain: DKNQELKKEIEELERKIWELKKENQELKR

[15] = biological target: T15, 4H492-bH; test: two-hybrid library CCNG1
T15 chain: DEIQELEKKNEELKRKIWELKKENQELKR

[16] = biological target: T16, 4H575-bA; test: two-hybrid library CCNG1
T16 chain: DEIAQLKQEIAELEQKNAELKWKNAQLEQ

[17] = biological target: T17, 4H3920-AA; test: two-hybrid library CCmax; settings: mean of both orientations
T17 chain: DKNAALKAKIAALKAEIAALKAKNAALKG

[18] = biological target: T18, 4H391-AA; test: two-hybrid library CCmax; settings: mean of both orientations
T18 chain: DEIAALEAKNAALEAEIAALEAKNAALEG

[19] = biological target: T19, 4H3121-AA; test: two-hybrid library CCmax; settings: mean of both orientations
T19 chain: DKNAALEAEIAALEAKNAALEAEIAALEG

[20] = biological target: T20, 4H971-AA; test: two-hybrid library CCmax; settings: mean of both orientations
T20 chain: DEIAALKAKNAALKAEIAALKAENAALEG

[21] = biological target: T21, 4H3939-AA; test: two-hybrid library CCmax
T21 chain: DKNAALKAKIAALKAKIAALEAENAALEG

[22] = biological target: T22, 4H3446-AA; test: two-hybrid library CCmax; settings: mean of both orientations
T22 chain: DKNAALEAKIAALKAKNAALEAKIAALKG

[23] = biological target: T23, 4H656-AA; test: two-hybrid library CCmax; settings: mean of both orientations
T23 chain: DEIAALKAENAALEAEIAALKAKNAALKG

[24] = biological target: T24, 4H2248-AA; test: two-hybrid library CCmax; settings: mean of both orientations
T24 chain: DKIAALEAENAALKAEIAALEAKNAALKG

[25] = biological target: T25, 4H2283-AA; test: two-hybrid library CCmax; settings: mean of both orientations
T25 chain: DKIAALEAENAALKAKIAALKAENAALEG

[26] = biological target: T26, 4H2948-AA; test: two-hybrid library CCmax; settings: mean of both orientations
T26 chain: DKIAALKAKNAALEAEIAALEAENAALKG

[27] = biological target: T27, 4H3666-AA; test: two-hybrid library CCmax; settings: mean of both orientations
T27 chain: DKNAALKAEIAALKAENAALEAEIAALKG

[28] = biological target: T28, 4H497-AA; test: two-hybrid library CCmax; settings: mean of both orientations
T28 chain: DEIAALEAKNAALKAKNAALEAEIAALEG

[29] = biological target: T29, 4H3066-AA; test: two-hybrid library CCmax; settings: mean of both orientations
T29 chain: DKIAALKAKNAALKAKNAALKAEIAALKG

[30] = biological target: T30, 4H2742-AA; test: two-hybrid library CCmax; settings: mean of both orientations
T30 chain: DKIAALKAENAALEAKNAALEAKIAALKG

[31] = biological target: T31, 4H3102-AA; test: two-hybrid library CCmax; settings: mean of both orientations
T31 chain: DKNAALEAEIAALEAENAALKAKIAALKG

[32] = biological target: T32, 4H3417-AA; test: two-hybrid library CCmax; settings: mean of both orientations
T32 chain: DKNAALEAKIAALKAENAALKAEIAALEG

[33] = biological target: T33, 4H189-AA; test: two-hybrid library CCmax
T33 chain: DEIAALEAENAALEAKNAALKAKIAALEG

[34] = biological target: T34, 4H478-AA; test: two-hybrid library CCmax; settings: mean of both orientations
T34 chain: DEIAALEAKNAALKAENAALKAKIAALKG

[35] = biological target: T35, 4H3029-AA; test: two-hybrid library CCmax; settings: mean of both orientations
T35 chain: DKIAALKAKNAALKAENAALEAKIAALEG

[36] = biological target: T36, 4H675-AA; test: two-hybrid library CCmax; settings: mean of both orientations
T36 chain: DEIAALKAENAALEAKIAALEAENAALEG

[37] = biological target: T37, 4H428-AA; test: two-hybrid library CCmax; settings: mean of both orientations
T37 chain: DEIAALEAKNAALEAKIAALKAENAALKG

[38] = biological target: T38, 4H3591-AA; test: two-hybrid library CCmax; settings: mean of both orientations
T38 chain: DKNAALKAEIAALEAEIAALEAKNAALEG

[39] = biological target: T39, 4H2713-AA; test: two-hybrid library CCmax; settings: mean of both orientations
T39 chain: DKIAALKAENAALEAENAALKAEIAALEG

[40] = biological target: T40, 4H2991-AA; test: two-hybrid library CCmax; settings: mean of both orientations
T40 chain: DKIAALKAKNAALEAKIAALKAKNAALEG

[41] = biological target: T41, 4H3628-AA; test: two-hybrid library CCmax; settings: mean of both orientations
T41 chain: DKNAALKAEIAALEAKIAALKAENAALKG

[42] = biological target: T42, 4H3709-AA; test: two-hybrid library CCmax; settings: mean of both orientations
T42 chain: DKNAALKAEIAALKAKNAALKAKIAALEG

[43] = biological target: T43, 4H2839-bH; test: two-hybrid library CCNG1
T43 chain: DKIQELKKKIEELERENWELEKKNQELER

[44] = biological target: T44, 4H2915-bH; test: two-hybrid library CCNG1
T44 chain: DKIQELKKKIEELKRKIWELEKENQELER

[45] = biological target: T45, 4H3057-bH; test: two-hybrid library CCNG1
T45 chain: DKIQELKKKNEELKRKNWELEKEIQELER

[46] = biological target: T46, 4H319-bH; test: two-hybrid library CCNG1
T46 chain: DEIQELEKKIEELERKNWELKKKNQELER

[47] = biological target: T47, 4H2717-bH; test: two-hybrid library CCNG1
T47 chain: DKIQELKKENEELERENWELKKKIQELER

[48] = biological target: T48, P10-AA; test: two-hybrid library CCmax; settings: mean of both orientations
T48 chain: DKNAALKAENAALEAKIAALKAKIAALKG

[49] = biological target: T49, P12-AA; test: two-hybrid library CCmax; settings: mean of both orientations
T49 chain: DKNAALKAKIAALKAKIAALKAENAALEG

[50] = biological target: T50, AP7-AA; test: two-hybrid library CCmax; settings: mean of both orientations
T50 chain: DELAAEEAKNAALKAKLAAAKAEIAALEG

[51] = biological target: T51, P11-AA; test: two-hybrid library CCmax; settings: mean of both orientations
T51 chain: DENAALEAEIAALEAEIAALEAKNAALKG

[52] = biological target: GCN2_T; test: two-hybrid library CCmax
[53] = biological target: T52, AP8-AA; test: two-hybrid library CCmax; settings: mean of both orientations
T52 chain: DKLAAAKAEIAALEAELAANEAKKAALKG

[54] = biological target: T53, P3-AA; test: two-hybrid library CCmax; settings: mean of both orientations
T53 chain: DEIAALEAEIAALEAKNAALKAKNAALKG

[55] = biological target: T54, AP6-AA; test: two-hybrid library CCmax; settings: mean of both orientations
T54 chain: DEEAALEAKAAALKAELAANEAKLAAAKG

[56] = biological target: T55, P8-AA; test: two-hybrid library CCmax; settings: mean of both orientations
T55 chain: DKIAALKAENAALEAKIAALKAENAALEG

[57] = biological target: T56, AP4-AA; test: two-hybrid library CCmax
T56 chain: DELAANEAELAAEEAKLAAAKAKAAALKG

[58] = biological target: T57, P1-AA; test: two-hybrid library CCmax; settings: mean of both orientations
T57 chain: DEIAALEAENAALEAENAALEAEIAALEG

[59] = biological target: T58, P2-AA; test: two-hybrid library CCmax; settings: mean of both orientations
T58 chain: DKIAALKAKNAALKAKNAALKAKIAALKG

[60] = biological target: T59, P7-AA; test: two-hybrid library CCmax; settings: mean of both orientations
T59 chain: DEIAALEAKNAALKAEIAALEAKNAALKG

[61] = biological target: T60, AP5-AA; test: two-hybrid library CCmax; settings: mean of both orientations
T60 chain: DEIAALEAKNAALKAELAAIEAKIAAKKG

[62] = biological target: T61, P4-AA; test: two-hybrid library CCmax; settings: mean of both orientations
T61 chain: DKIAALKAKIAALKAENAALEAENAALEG

[63] = biological target: T62, P9-AA; test: two-hybrid library CCmax; settings: mean of both orientations
T62 chain: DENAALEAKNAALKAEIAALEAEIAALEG

Binder: DEIAALEAENAALEAKNAALKAKIAALEG [4H189-AA]
interaction score [17]: -1.97 | interaction score [18]: -1.47 | interaction score [19]: -1.84 | interaction score [20]: -1.52 | interaction score [21]: -1.4 | interaction score [22]: -1.07 | interaction score [23]: -0.83 | interaction score [24]: -1.26 | interaction score [25]: -1.71 | interaction score [26]: -1.02 | interaction score [27]: -0.914 | interaction score [28]: 0.26 | interaction score [29]: 1.07 | interaction score [30]: 1.11 | interaction score [31]: -1.74 | interaction score [32]: -1.19 | interaction score [33]: -1.25 | interaction score [34]: 1.85 | interaction score [35]: 2.05 | interaction score [36]: -1.31 | interaction score [37]: -1.92 | interaction score [38]: -0.919 | interaction score [39]: 1.05 | interaction score [40]: -1.76 | interaction score [41]: -1.64 | interaction score [42]: -1.23

Binder: DKIQELKKENEELERENWELKKKIQELER [4H2717-bH]
interaction score [2]: -0.364 | interaction score [3]: -1.79 | interaction score [43]: -0.51 | interaction score [44]: -0.399 | interaction score [45]: -0.185 | interaction score [46]: -0.701 | interaction score [8]: -0.479 | interaction score [10]: -0.815 | interaction score [12]: 1.38 | interaction score [15]: -0.752 | interaction score [47]: 1.16

Results, then the binder that gave them:

interaction score [1]: -0.0624 | interaction score [2]: 0.219 | interaction score [3]: -2.8 | interaction score [4]: 0.0179 | interaction score [5]: -0.711 | interaction score [6]: -1.06 | interaction score [7]: -0.167 | interaction score [8]: 1.3 | interaction score [9]: -0.423 | interaction score [10]: 0.141 | interaction score [11]: -0.709 | interaction score [12]: 0.256 | interaction score [13]: 0.203 | interaction score [14]: -1.48 | interaction score [15]: -0.305
Binder: DKNQELEKENEELKREIWELKKKIQELER [4H3277-bH]

interaction score [1]: -1.68 | interaction score [4]: -1.21 | interaction score [5]: -0.424 | interaction score [6]: -0.173 | interaction score [7]: -0.215 | interaction score [9]: -0.397 | interaction score [11]: 1.66 | interaction score [13]: 0.573 | interaction score [14]: 0.519 | interaction score [16]: -1.29
Binder: DKNQELEKENEELKRKIWELEKEIQELKR [4H3298-bH]

interaction score [48]: -1.25 | interaction score [49]: -1.45 | interaction score [50]: -1.78 | interaction score [51]: -0.858 | interaction score [52]: -1.55 | interaction score [53]: -1.25 | interaction score [54]: -1.14 | interaction score [55]: -2.03 | interaction score [56]: -1.15 | interaction score [57]: -1.46 | interaction score [58]: -1.34 | interaction score [59]: -1.78 | interaction score [60]: -1.82 | interaction score [61]: -1.51 | interaction score [62]: -1.48 | interaction score [63]: -1.6
Binder: DELAANEAELAAEEAKLAAAKAKAAALKG [AP4-AA]
